Measured values as given in IntAct's records for PubMed 17280616.

B1: Maternal embryonic leucine zipper kinase (Homo sapiens), Q14680 (parent)
chain: MKDYDELLKYYELHETIGTGGFAKVKLACHILTGEMVAIKIMDKNTLGSDLPRIKTEIEALKNLRHQHICQLYHVLETANKIFMVLEYCPGGELFDYIISQDRLSEEETRVVFRQIVSAVAYVHSQGYAHRDLKPENLLFDEYHKLKLIDFGLCAKPKGNKDYHLQTCCGSLAYAAPELIQGKSYLGSEADVWSMGILLYVLMCGFLPFDDDNVMALYKKIMRGKYDVPKWLSPSSILLLQQMLQVDPKKRISMKNLLNHPWIMQDYNYPVEWQSKNPFIHLDDDCVTELSVHHRNNRQTMEDLISLWQYDHLTATYLLLLAKKARGKPVRLRLSSFSCGQASATPFTDIKSNNWSLEDVTASDKNYVAGLIDYDWCEDDLSTGAATPRTSQFTKYWTESNGVESKSLTPALCRTPANKLKNKENVYTPKSAVKNEEYFMFPEPKTPVNKNQHKREILTTPNRYTTPSKARNQCLKETPIKIPVNSTGTDKLMTGVISPERRCRSVELDLNQAHMEETPKRKGAKVFGSLERGLDKVITVLTRSKRKGSARDGPRRLKLHYNVTTTRLVNPDQLLNEIMSILPKKHVDFVQKGYTLKCQTQSDFGKVTMQFELEVCQLQKPDVVGIRRQRLKGDAWVYKRLVEDILSSCKV

Variants of: B1
Details: with BCL2L14, Q9BZR8
BCL2L14, Q9BZR8, sequence (Q9BZR8 whole entry): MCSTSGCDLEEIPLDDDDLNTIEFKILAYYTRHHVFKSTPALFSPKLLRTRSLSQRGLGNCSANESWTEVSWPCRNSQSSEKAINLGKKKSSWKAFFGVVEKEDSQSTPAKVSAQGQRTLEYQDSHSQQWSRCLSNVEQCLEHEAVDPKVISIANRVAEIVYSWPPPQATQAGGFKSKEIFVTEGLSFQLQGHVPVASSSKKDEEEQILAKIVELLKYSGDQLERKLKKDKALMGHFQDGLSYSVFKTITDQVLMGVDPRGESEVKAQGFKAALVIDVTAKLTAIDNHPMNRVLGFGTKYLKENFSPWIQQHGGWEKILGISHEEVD

| effect of a mutation on the interaction | Variant |
| --- | --- |
| disrupting interaction | D150A |
